# Laboratory results taken from the supplement of paper PMC12042874.
# ± gives the uncertainty stated by the source.
# Assay: amyloid nucleation score (Sup35N fusion, yeast selection) (log enrichment); library NNK2; higher = more nucleation; inactive = no reads after selection
# Procedure, shortened: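 After 24 hours of induction with 100 μM copper sulfate, psi-negative yeast expressing peptides of 20 random codons fused to Sup35N were grown for 7 days at 30°C on medium lacking adenine and uracil. Input and output plasmid inserts were sequenced with Illumina, and sequences with under 100 input reads were discarded. Scores for nucleation are the DiMSum log enrichment of output over input reads, centred on the mode score of non-aggregating sequences.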
row,Substance,amyloid nucleation score
1,HRVRSDDLVKAWPQWNALGA,1.18 ± 0.12
2,FVTCYKLWMAFYTMVQSRKS,1.17 ± 0.48
3,YFGFGKSGDYHHSWKRWLPR,-0.511 ± 0.35
4,GINISVLNMRQLFRLSAGSH,4.36 ± 0.086
5,RTRDPRIFLSVCTGYTRRYY,-1.28 ± 0.76
6,NSLHSDSVLIKERDADKSTR,1.73 ± 0.14
7,VMFTGHCVTRNDRDRLVLTY,-0.522 ± 0.76
8,PFLVLSWDRCN,-0.288 ± 1.1
9,GTMQFIVICNSDVFVSWLPN,7.253 ± 0.071
10,SYLLSRYLRPKGYADNIVYA,inactive
11,CYHRKFVLLFFLSNR,inactive
12,EESGGYC,-0.893 ± 0.25
13,SFIWKLYMLHWNWRSTEEGE,-0.17 ± 0.65
14,TTTCLMLLRVNFNTALLIRN,-1.41 ± 0.49
15,KYFIASLDQFSYISVHNEVV,inactive
16,IRMNIFASSTR,3.11 ± 0.073
17,PNSRGLSQVNLSFVENRRWS,3.84 ± 0.044
18,CAGRFRCFLMSCIDCKLGVL,-0.763 ± 1
19,RPCQGLDTSVRCVLMMRYYR,4.36 ± 0.046
20,KNCVHE,-0.076 ± 0.79
21,YAGWVGI,-0.387 ± 1.1
22,LGDCVSNHSCLSVEHFDLNY,4.92 ± 0.11
23,LLSSLVFVVNFFAKGLRWLT,-1.9 ± 0.62
24,FVRNKLMADFFWLGFYN,-1.79 ± 0.63
25,TVSLYIDYPSVLGFPWSY,-0.952 ± 0.55

row,Substance,amyloid nucleation score
1,SWITPMRHLFSNHSLGLNAY,-0.298 ± 0.43
2,MVSVKSCYYVSVSVLSRFHF,0.065 ± 0.36
3,ASHLVVTLVNKVKCNAVVRG,0.758 ± 0.21
4,TVHRLRNVCLL,2.51 ± 0.25
5,GGPSGQFCYPGGNKGYCN,-0.724 ± 1
6,SIANYGFVLNNHIRFFRSSG,2.32 ± 0.15
7,HLRWARRIGVCTVFYLSRIC,0.483 ± 0.57
8,FKIAGRI,inactive
9,PITCMLQ,0.398 ± 0.35
10,RCSTGRVFSSLDEVLLSRWG,4.64 ± 0.048
11,SVVFLRLGYGKLRV,-0.159 ± 1
12,YDRKGIQCKRLAGPGQRHRS,0.244 ± 0.39
13,CYLYFIEYWFSEAPYFTSER,-0.959 ± 1.1
14,SSQCRDVGEAGNHWCLSGSG,2.8 ± 0.14
15,AYAHH,4.08 ± 0.072
16,RECFLNPWSVYVRFS,-0.086 ± 0.44
17,DSVIRRNKNTSTL,-0.275 ± 0.25
18,CMKEMLVMLTCYICVSKSLI,3.66 ± 0.079
19,TLYYIVRHQICANFYRMYNG,inactive
20,ARTSLCESTWPTNVRIGPKS,0.498 ± 0.64
21,MTIQSYGVILLLISVYWLSF,0.584 ± 0.66
22,RNQNLLWNVSGIAFNKMRRK,4.02 ± 0.093
23,ICRLFVR,-0.454 ± 0.31
24,SKRDGVSSMIM,4.25 ± 0.069
25,SADDL,0.972 ± 0.39

row,Substance,amyloid nucleation score
1,FTSSYKSAVRTLIFVLSESG,0.331 ± 0.36
2,KSVFYIWFSHRVSVVAVRQL,5.13 ± 0.093
3,VLMDASTSVYTRSLMWKYMR,-0.162 ± 0.76
4,GKLRLLWKGITCVRAFANKL,-0.976 ± 0.34
5,NSSSYVDFGTICMDSIWMS,0.041 ± 0.53
6,TGRLSIVAKNYWGHSVRAFS,0.001 ± 0.76
7,AFFACRNASSHTLWMLG,5.91 ± 0.07
8,CVLGAVYLHRLTDGCDVKFT,0.762 ± 0.81
9,IFENI,inactive
10,MGGQLLSNECLHSDSFVCFH,1.21 ± 0.47
11,SLTFSGMP,inactive
12,FRVRRGLASGR,1.28 ± 0.3
13,FGRWHYLQRGFKRSGVHFNR,inactive
14,CERGLFFVMY,-1.15 ± 1.1
15,ATESIMLLPYNTDPSMTWLT,0.227 ± 0.55
16,RPPSIYC,-0.477 ± 0.49
17,IGVSNLLCMFTLDPKGIQDG,8.488 ± 0.056
18,GLFGGIHFVANLGTPPCLDE,1.56 ± 0.31
19,YNCCVKISVSM,5.481 ± 0.042
20,SPLEKATRFPTWEQCTVASM,0.405 ± 0.23
21,EMLFWVVGTMDVDWMPG,0.508 ± 0.57
22,NALGRMCGSWRLVIHISDWW,0.236 ± 0.23
23,FRPHQVV,inactive
24,LLSRPTGQLVVPSQGLHFCY,0.242 ± 0.61
25,QMQYFKATYSI,-0.613 ± 0.44

row,Substance,amyloid nucleation score
1,LNVDGDRAGVYIVKVHDPVR,0.027 ± 0.74
2,LYHVISSNWHEDNDMT,0.003 ± 0.23
3,YENFLLLL,-0.676 ± 0.26
4,NWWESRAFGWYDSLSIFSYT,-0.469 ± 1.1
5,YSYFSYVLRFMCSYLLALTQ,inactive
6,SYSYFLELVSYKFSVVFLSI,0.715 ± 0.58
7,DLTGGVRLRRWGWTSCSGNG,0.404 ± 0.46
8,ETYWWRQRLNSRLAFNWH,5.16 ± 0.098
9,FIFKGNQWKVFVFL,2.83 ± 0.068
10,SGLFFTHTFRKLVYRLRSTK,-1.08 ± 1.1
11,IGKSCRLRA,0.609 ± 0.46
12,CECETVSLTFEHWCTRGRLG,5.156 ± 0.047
13,NPYKLTLPLTSLLLYSIPRA,-0.127 ± 1.1
14,LFLFGSV,0.28 ± 0.62
15,VIPKHESISILFPAVYPPFE,0.031 ± 0.23
16,IYIAKW,-0.656 ± 0.33
17,ALRYVMRLY,2.53 ± 0.11
18,TRYMFMVTKLPGPGGCSVNE,inactive
19,AFLSLFNSYWYFVFAKLF,-0.558 ± 0.74
20,LNICDLRPLV,-0.93 ± 0.76
21,SFRTLVP,-0.905 ± 0.63
22,FAWGPFA,-0.557 ± 0.37
23,WFMEILFVV,-0.383 ± 0.26
24,AGSSSVNQITCLH,-0.22 ± 1
25,VVAKAGRSKFSGCSRATAGG,0.609 ± 0.41

row,Substance,amyloid nucleation score
1,RNLYGHISVIFCGDNFDGSC,7.15 ± 0.077
2,FFLLAGVLDWAYGWYYIVWK,0.147 ± 1.1
3,LLHYGGSFLAAKFRRMSCNE,0.811 ± 0.66
4,MCSSPRRNDKLNNGRFYSCS,-1.11 ± 0.54
5,SMHGSNVIWESFILRQEHDV,-0.268 ± 0.31
6,QIQVYMNALLTRLSSIILIF,-0.93 ± 0.55
7,VMARYMFVK,0.064 ± 0.65
8,CWDEQLQPS,0.744 ± 0.45
9,RQLLTKCLCASTGGFIFSWD,0.792 ± 0.8
10,TYGHDKLRVSNIEHQLPGRA,0.306 ± 0.64
11,FVHERASGIVMLRGISVRGP,-0.327 ± 0.48
12,EFVLKSLTNLTEIKYAVSLE,2.09 ± 0.099
13,YGAWCERLKRFSRLVWSDGR,0.312 ± 0.54
14,HLDGWRNFDYDIS,-2.3 ± 0.78
15,QLVMCGHEDQYIRSDRSERN,-0.112 ± 0.25
16,EGFLRIVKVVTTIWWTGLFC,-1.23 ± 1
17,EWSRGLCTVQLA,0.058 ± 0.65
18,DTLLSMAKRCLDSVFLGFPR,-0.134 ± 0.55
19,KRGKPK,inactive
20,VSMAIFGSSNILYSIRSLLE,4.37 ± 0.082
21,IWPSRSGCVSVASVRI,0.98 ± 0.33
22,LKATQLYGFYMTEKCVDSSW,-0.549 ± 1
23,KSFGCIRKCEDCYIW,0.74 ± 0.51
24,HFCVLLLSFKNKILNYAFMH,-0.393 ± 1.1
25,RKVSSARNSVIATSMSNNSV,-1.61 ± 0.54

row,Substance,amyloid nucleation score
1,FVLSTVRLSAASAPMRFTHL,0.468 ± 0.74
2,NLWFSHDITYHYTYFDRSRA,4.52 ± 0.087
3,VYWTKWGFLLVSSVKVLSLE,-0.14 ± 1
4,FDIPCSFVPVYHIKAFLCRM,-0.353 ± 0.79
5,TMFLYSNAEDFF,inactive
6,RRDHHMPPITPGCFRLYWRI,0.237 ± 1
7,HELAIISN,2.97 ± 0.17
8,CFMYT,-0.415 ± 0.21
9,PWHTSFALERKDMGHK,-0.094 ± 0.36
10,CSFLSLY,-0.485 ± 0.64
11,KKNEIEVECGPNCGTGTLVF,5.04 ± 0.054
12,SCHVC,5.854 ± 0.058
13,AISGWCNMNCKLGKQWDYLV,1.25 ± 0.66
14,RRCEGCN,-0.299 ± 1
15,SYFWRYFM,0.087 ± 0.79
16,AKVWDCGSPKVQYIVARQVV,0.042 ± 0.46
17,RKGCWSL,1.65 ± 0.34
18,SFVVWTPWLSPSYACPRQIF,-0.124 ± 0.76
19,MPSRYMIVMFNLTLPRRGVG,-0.226 ± 0.55
20,YRRCSRGNPGCDLAGFGRVV,-0.08 ± 0.74
21,LVSVLGSTFLGSAWDTEGWY,-0.579 ± 0.5
22,DRLLDLIVWGVFWQLGMRFL,inactive
23,GYRYHLWHVT,inactive
24,VRWFCSVISF,2.39 ± 0.14
25,YSVSVRLA,-0.553 ± 0.63

row,Substance,amyloid nucleation score
1,FNMVNTILMNGPSCWLQSVP,0.21 ± 0.63
2,SCHLLL,-0.891 ± 1.1
3,SVLVVPVT,0.182 ± 0.79
4,RCELSRRGTSLRTWRWARNG,1.46 ± 0.17
5,NFCSMRSKVTCNSDDKFWNH,-1.13 ± 1.1
6,LKWVYLSSIALTFAPPRRLD,3.63 ± 0.069
7,MDFYCRWVVWFQEGNF,3.45 ± 0.058
8,YYSFSGRATWGRNKSFMWVA,0.089 ± 1.1
9,YWSRRAYCFCSAFFYNTGFF,1.53 ± 0.19
10,MTWGSISNNLVTRTTPTYIC,0.178 ± 0.56
11,HMEKWCSSTMSRLLSVQLAK,0.771 ± 0.29
12,HQVLYTIAISFTIELAVIIA,inactive
13,RTFLDIIGQTLLYVLVTVLA,0.548 ± 0.46
14,KLVISAFPPIRNMVYTKCSK,-0.446 ± 1.1
15,PRSGVSAKQSCAWNVRDGDR,0.566 ± 0.39
16,DTIILC,inactive
17,LCRYARCLIVSFVRIFGCCL,-0.47 ± 1.1
18,FAIGR,-0.077 ± 0.36
19,KLHRLTGGHYDPNCDNGPVD,3.68 ± 0.059
20,IRRTPHLISFLRKLCEYWIE,inactive
21,LTRFMYYLFTDLC,-0.813 ± 1.1
22,PWVSILLVPMYQRHLTPHPE,-0.121 ± 1.1
23,RMKVDTLIWTPDWMEFVSII,-0.824 ± 1.1
